Assay results as given in the supplement of paper PMC10567573.

B1: TBX5 (parent)
chain: YQNHKITQLKIENNPFAKGFRGSD
B2: MNAT1 (parent)
chain: LAPIHKLEEALYEYQPLQIETYGP

Variants of: B1
Test: protein stability index of a GFP-peptide fusion (GPS, HEK-293T) (PSI 1-6); higher = more stable
Conditions: c terminus: a fixed tail appended
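Further: lentivirally expressed fusions sorted by FACS into six bins by GFP to DsRed ratio, PSI derived from sequencing read proportions per bin multiplied by bin number.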

Protein stability index, by site and new letter:
K5: N 2.59 | C 2.15 | T 2.44 | L 2.18 | A 2.7 | I 1.51 | H 2.03 | P 2.77 | Q 2.81 | Y 1.95 | R 2.38 | F 1.84 | V 2.44 | S 2.21 | D 3.06 | W 2.64
R21: L 2.15 | F 2.89 | D 2.95 | W 1.8 | G 2.46 | M 2.55 | S 2.76 | C 2.34 | N 2.61 | T 2.44 | E 2.58 | Y 2.96 | I 2.19 | V 2.51
G19: K 2.59 | S 2.76 | F 2.16 | H 2.55 | P 2.85 | V 2.31 | T 2.53 | R 2.22 | D 2.7
N13: I 1.51 | Y 1.77 | E 2.36 | M 2.29 | A 2.17 | V 1.81 | T 2.25 | C 2.31 | H 2.15 | W 2.09 | G 1.81 | L 1.67
Q8: I 2.06 | W 1.57 | L 1.41 | K 2.28 | V 2.49 | S 2.13 | R 1.99 | G 2.73 | M 2.2 | H 2.41 | E 2.97 | C 1.91 | D 2.75 | N 2.4
N14: E 2.95 | I 2.41 | H 2.36 | D 2.84 | K 2.75 | T 2.61 | G 2.46 | A 2.61 | C 1.58 | V 2.27 | F 2.34 | L 2.52 | P 2.52 | S 2.16
D24: C 2.25 | P 2.39 | M 2.43 | K 2.53 | Y 2.04 | V 1.83 | Q 1.88 | R 2.69 | E 2.64 | G 2.39 | H 1.99 | L 1.95 | F 1.95 | S 2.14 | W 1.32 | I 2.08
S23: F 1.92 | L 2.11 | A 2.25 | Y 2.55 | N 2.39 | V 2.35 | C 2.49 | W 2.02 | H 2.47 | P 2.55 | T 2.3
Y1: A 3.46 | K 3.91 | I 3.32 | R 3.61 | C 3.19 | L 3.42 | M 3.79 | T 3.65 | S 2.82 | D 3.46
E12: H 2.3 | T 2.75 | A 2.32 | W 1.49 | K 1.84 | D 2.94 | L 2.17 | F 1.7 | S 2.11 | C 1.73 | Q 2.22 | V 1.91 | I 1.81 | M 2.35 | N 2.51
G22: W 1.76 | E 2.33 | K 2.49 | Y 2.63 | M 2.49 | V 2.32 | P 3.32 | S 2.57 | C 2.24 | Q 2.83 | T 2.67 | H 2.46 | L 2.02 | A 2.37
H4: P 2.58 | I 2.11 | A 2.52 | F 1.89 | G 2.57 | Y 2.15 | W 2.89 | E 3.19 | Q 2.66 | C 1.67 | T 2.44 | S 2.62
L9: F 2.26 | A 2.83 | V 4.05 | Q 3.19 | D 3.21 | H 2.38 | Y 2.31 | E 3.09 | K 2.81 | S 3.07 | M 2.58 | C 2.02 | T 2.37
N3: E 3.33 | W 1.89 | H 2.29 | F 2.23 | K 2.64 | A 1.94 | V 2.39 | M 2.16 | Q 2.93 | I 1.97
F16: L 2.51 | Y 2.46 | V 2.73 | R 3.16 | A 3.12 | D 3.52 | I 3 | E 3.64 | M 2.98 | H 3.54 | W 1.93 | C 3.17 | T 3.47 | P 3.93 | S 3.56
K10: N 2.46 | T 2.74 | R 2.58 | V 2.02 | I 1.63 | G 1.85 | M 2.23 | Q 2.5 | C 2.11 | Y 2.17 | E 3.11 | W 1.95 | P 3.2 | H 2.2 | S 2.79 | L 2.03
A17: D 2.73 | W 1.98 | C 2.22 | V 2.73 | K 2.73 | H 2.54 | S 2.01 | M 2.5 | N 2.21 | L 2.34 | Q 2.54 | P 2.77
P15: F 1.96 | A 2.52 | D 3.34 | H 2.35 | N 2.7 | T 2.82 | E 2.69 | I 2.04 | S 2.7 | L 2.08 | R 2.35
I11: M 2.64 | A 2.36 | R 2.71 | L 2.62 | P 2.71 | N 2.59 | E 3.23 | G 2.47 | Q 2.58 | V 2.58 | W 2.34 | T 2.71 | C 2.48 | F 2.25
I6: F 2.45 | N 3.09 | M 2.7 | D 3.53 | A 3.47 | E 3.16 | S 3.04 | V 2.4 | H 2.83 | Q 2.98 | K 3.27 | T 3.06 | W 4.36
K18: G 1.81 | H 2.09 | R 2.77 | E 3.08 | I 2.49 | A 2.24 | W 1.63 | P 2.54 | T 1.67 | D 2.16 | M 2.06 | F 1.7 | C 1.36 | Q 2.37 | V 2.07
F20: C 2.85 | N 3.28 | L 2.79 | E 3.56 | Y 2.49 | W 2.73 | K 3.11 | R 3.02 | H 3.27 | D 3.41 | I 2.47 | S 3.23 | A 3.41 | V 2.63 | Q 3.19
Q2: H 1.46 | R 2.61 | D 4.02 | S 3.26 | T 2.4 | M 2.61 | W 2.04 | C 2.54 | E 3.14 | V 2.39 | A 1.84
T7: V 2.29 | L 2.3 | I 2.5 | R 2.48 | W 3.51 | Y 2.37 | N 2.59 | S 2.46 | C 1.94 | F 1.61 | H 2.77 | M 2.21 | P 2.85 | Q 2.63

Variants of: B2
Test: as above
Conditions: c terminus: a fixed tail appended

Protein stability index: each site, then its substitutions
I19: N 3.25 | F 1.85
L17: S 3.45
P3: A 2.23 | S 2.12
L7: P 3.29
I4: Y 1.66 | W 1.59
H5: G 1.96
P16: E 2.67 | Y 1.52
A2: H 2.21 | M 1.63 | R 1.62
K6: V 2.14
P24: Y 2.37
E13: W 2.08
Y12: E 2.65
